Experimental data published in patent publication US20210188969A1, “ANTIBODIES THAT BIND INTERLEUKIN-2 AND USES THEREOF” (published 2021).

T1: rat IL-2 (rat, UniProt P17108)
T1 sequence: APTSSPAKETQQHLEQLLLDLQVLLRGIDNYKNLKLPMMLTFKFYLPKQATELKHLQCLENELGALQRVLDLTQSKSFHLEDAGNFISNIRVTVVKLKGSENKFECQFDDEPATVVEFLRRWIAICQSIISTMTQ

B1: XPA.92.019 (antibody, V domains shown)
VH: EVQLVESGGGLVQPGRSLRLSCAASGFTFSYYGMHWVRQAPGKGLEWVADISNDGSNKYYADSVKGRFTISRDNSKTTLYLQMNSLRPEDTAVYYCATPYYDSSGLDYWGQGTLVTVSS
VL: SYELTQPPSVSVSPGQTARITCSGDALPKRFAYWYQQKAGQAPVLVIYEDNKRPSGIPETLSGSSSGTTATLTISGAQEEDEADYYCYSTDNTGGLWVFGGGTKLTVLG
B2: XPA.92.099 (antibody, V domains shown)
VH: QVQLVESGGGLVKPGRSLRLSCAASGFTFNRYAMSWVRQAPGKGLEWVAMISFDGGNQYYTDSVSGRFTISRDNSKTTLFLQMDSLRTEDTAVYYCVRSPAGDWVAYFDYWGQGTLVTVSS
VL: DIQMTQSPSSLSASIGDRVTIPCQASEDISNHLSWYQQKPGKAPKPLIFDASDLETGVPSRFSGSGSGTDFALTISSLRPDDFATYYCHQYHDYPSYTFGHGTKLEIKR
B3: XPA.92.042 (antibody, V domains shown)
VH: EVQLVQSGTEVKKAGDSLKISCKGSGYNFDTYWIGWVRQMPGRGLEWMGTIYPADSDTRYSPSFQGQVTMSADKSISTAYLQWGSLRASDTAMYYCARFSSSAYDIWGQGTMVTVSS
VL: SYELTQPPSVSVSPGQTARITCSGDALPRKFAYWYQQKSGQAPVLVIYQDTKRPSGIPERFSGSSSGTTVTLTISDVQAEDDADYYCQSADRSDSYVFGAGTKLTVLG

Assays:
[1] = molecular target: recombinant human IL-2 (human) (UniProt P60568)
[2] = molecular target: recombinant human IL-2 (human) (UniProt P60568); remark: listed apart in the source
[3] = molecular target: mouse IL-2 Rβγ on mouse primary NK cells (mouse) (UniProt P16297)
[4] = molecular target: recombinant human IL-2 (human) (UniProt P60568); remark: listed apart in the source
[5] = molecular target: recombinant human IL-2 (human) (UniProt P60568); remark: listed apart in the source
[6] = molecular target: recombinant human IL-2 (human) (UniProt P60568); remark: listed apart in the source
[7] = molecular target: recombinant human IL-2 (human) (UniProt P60568); remark: listed apart in the source
[8] = molecular target: recombinant human IL-2 (human) (UniProt P60568); remark: listed apart in the source
[9] = molecular target: recombinant human IL-2 (human) (UniProt P60568); remark: listed apart in the source
rat IL-2 = molecular target: T1, rat IL-2; test: SPR (Biacore 4000), antibody captured on anti-human IgG Fc, IL-2 30 nM to 1 nM; affinity estimate
Description: Antibody affinities were measured by SPR using the Biacore 4000 with a standard capture methodology. Briefly, anti-human IgG (Fc specific) from an anti-human antibody capture kit (Biacore) was immobilized onto spots 1, 2, 4, and 5 of all four flow cells of a CM-5 sensor chip by amine coupling according to the manufacturer's instructions. Running buffer was HBS-EP+ with 1% BSA. […] Data were analyzed using the Biacore 4000 Evaluation software.
These sequences were imported into vector NTI® (Lifetech) and aligned using the alignx tool.

Molecule	EC50 of IL-2-induced phosphorylation of STAT5a,b, NK-92 cells, with isotype control [1]	EC50 of IL-2-induced phosphorylation of STAT5a,b, mouse primary NK cells, with isotype control [2]	EC50 of IL-2-induced phosphorylation of STAT5a,b, mouse primary NK cells, IL-2 pre-complexed with 100 nM antibody [3]	fold EC50 shift of IL-2-induced proliferation, BaF3/IL-2 HuRβγ [4]	fold EC50 shift of IL-2-induced proliferation, NK92 (huRαβγ) [4]	fold EC50 shift of IL-2-induced proliferation, CTLL-2 (muRαβγ) [5]	fold EC50 shift of IL-2-induced pSTAT5a,b, Human Primary NK cells (huRβγ) [6]	fold EC50 shift of IL-2-induced pSTAT5a,b, NK92 (huRαβγ) [6]	fold EC50 shift of IL-2-induced pSTAT5a,b, CTLL-2 (muRαβγ) [7]	fold EC50 shift of IL-2-induced pSTAT5a,b, Mouse Primary NK cells (muβγ) [7]	fold shift in EC50 of IL-2-induced phosphorylation of STAT5a,b, NK-92 cells, relative to isotype control [1]	fold right-shift in EC50 of IL-2-induced CD69 on CD56bright NK cells, IL-2 pre-complexed with 200 nM antibody [8]	fold right-shift in EC50 of IL-2-induced CD69 on Tregs, IL-2 pre-complexed with 200 nM antibody [9]	fold shift in EC50 of IL-2-induced CD69 on Tregs, IL-2 pre-complexed with 200 nM antibody [9]	Kd (rat IL-2)
isotype control (anti-KLH) (antibody)	0.0009 nM	0.116 nM													
IL-2/MAB602 complex (from UniProt P60568)			0.361 nM												
MAB602 (antibody)				1.2 fold	15 fold	18 fold	10 fold	959 fold	227 fold	3 fold	1000 fold	5 to 10 fold	5 to 10 fold		
B1				5.2 fold	33 fold	130 fold	40 fold	966 fold	523 fold	15 fold				10 to 15 fold	> 1000 nM
B2				2.4 fold	22 fold	54 fold	24 fold	495 fold	293 fold	17 fold					
B3				5 fold	52 fold	156 fold	41 fold	1860 fold	793 fold	14 fold					
